System: Bacillus subtilis DB104 (SP-AmyQ fusion secretion)
Assay: AmyQ secretion efficiency, weighted average sort bin (1 = best secretion, 10 = worst) (bin number (weighted average, 1-10)); higher = lower secretion efficiency
Summary of the method: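 With fluorescein-starch as substrate, a B. subtilis DB104 library expressing mature AmyQ fused to designed signal peptides (integrated at amyE) was encapsulated at about 0.3 cells per ~65 nL alginate bead. After about 13 h at room temperature, beads were nile red stained, and occupied beads were sorted by large-particle flow cytometry into 10 equally populated bins by green/red fluorescence ratio. Illumina sequencing of the amplicons in each bin was used to calculate the secretion score, which is the read-frequency-weighted average bin number, normalised to beads per bin, with low-abundance sequences left out.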

Row | Sequence | AmyQ secretion efficiency
1 | MFMQIITATTAVVLGSTLFAGAASAQSI | 3.83
2 | MFNLQVMLALTAAAGLGLTALHSAPAAKAAPL | 3.11
3 | MFNRLFRGCGGKQKIMAFTLPNSVYAQKP | 7.39
4 | MFNRLFRMSSFIVCFLAALIMAFTLPNSVYAQKP | 1.95
5 | MFNRLFRRCYTSTLIMAFTLPNSVYAQKP | 5.72
6 | MFNRLFRVCFLAALIMAFDDDNSVYAQKP | 2.33
7 | MFNRLFRVCFLAALIMAFEEEDDEVYAQKP | 4.05
8 | MFNRLFRVCFLAALIMAFFLGNSVYAQKP | 2.37
9 | MFNRLFRVCFLAALIMAFRKKNSVYAQKP | 7.12
10 | MFNRLFRVCFLAALIMAFSSSSLFISLVTLPNSVYAQKP | 4.04
11 | MFNRLFRVCFLAALIMAFTLPNSAYAQKP | 2.14
12 | MFNRLFRVCFLAALIMAFTLPNSCYAQKP | 2.79
13 | MFNRLFRVCFLAALIMAFTLPNSDYAQKP | 6.44
14 | MFNRLFRVCFLAALIMAFTLPNSFYAQKP | 6.02
15 | MFNRLFRVCFLAALIMAFTLPNSGYAQKP | 2.99
16 | MFNRLFRVCFLAALIMAFTLPNSHYAQKP | 6.53
17 | MFNRLFRVCFLAALIMAFTLPNSIYAQKP | 2.87
18 | MFNRLFRVCFLAALIMAFTLPNSKYAQKP | 6.56
19 | MFNRLFRVCFLAALIMAFTLPNSLYAQKP | 2.72
20 | MFNRLFRVCFLAALIMAFTLPNSNYAQKP | 5.99
21 | MFNRLFRVCFLAALIMAFTLPNSPYAQKP | 7.43
22 | MFNRLFRVCFLAALIMAFTLPNSQYAQKP | 7.49
23 | MFNRLFRVCFLAALIMAFTLPNSSYAQKP | 2.08
24 | MFNRLFRVCFLAALIMAFTLPNSTYAQKP | 2.43
25 | MFNRLFRVCFLAALIMAFTLPNSVVTSVYAQKP | 2.32
26 | MFNRLFRVCFLAALIMAFTLPNSVYAKKR | 3.37

Row | Sequence | AmyQ secretion efficiency
27 | MFNRLFRVCFLAALIMAFTLPNSVYAQKR | 2.62
28 | MFNRLFRVCFLAALIMAFTLPNSVYAQPK | 1.86
29 | MFNRLFRVCFLAALIMAFTLPNSVYAQTP | 2.03
30 | MFNRLFRVCFLAALIMAFTLPNSVYCQKP | 4.33
31 | MFNRLFRVCFLAALIMAFTLPNSVYDQKP | 6.94
32 | MFNRLFRVCFLAALIMAFTLPNSVYEQKP | 7.29
33 | MFNRLFRVCFLAALIMAFTLPNSVYFQKP | 7.24
34 | MFNRLFRVCFLAALIMAFTLPNSVYGQKP | 2.74
35 | MFNRLFRVCFLAALIMAFTLPNSVYHQKP | 6.83
36 | MFNRLFRVCFLAALIMAFTLPNSVYIQKP | 7.01
37 | MFNRLFRVCFLAALIMAFTLPNSVYKQKP | 6.24
38 | MFNRLFRVCFLAALIMAFTLPNSVYLQKP | 6.77
39 | MFNRLFRVCFLAALIMAFTLPNSVYMQKP | 7.02
40 | MFNRLFRVCFLAALIMAFTLPNSVYNQKP | 6.82
41 | MFNRLFRVCFLAALIMAFTLPNSVYPQKP | 7.22
42 | MFNRLFRVCFLAALIMAFTLPNSVYQQKP | 5.8
43 | MFNRLFRVCFLAALIMAFTLPNSVYRQKP | 7.13
44 | MFNRLFRVCFLAALIMAFTLPNSVYSQKP | 3.32
45 | MFNRLFRVCFLAALIMAFTLPNSVYTQKP | 4.86
46 | MFNRLFRVCFLAALIMAFTLPNSVYVQKP | 6.52
47 | MFNRLFRVCFLAALIMAFTLPNSVYYQKP | 6.22
48 | MFNRLFRVCFLAALIMAFTLPNSWYAQKP | 7.03
49 | MFNRLFRVCFLAALIMAFTLPNSYYAQKP | 7.48
50 | MFNRLFRVCFLAALIMAFTVYAQKP | 6.93
51 | MFNRLFRVCFLAALIMAFVFFIVFTLPNSVYAQKP | 2.03
52 | MFNRLFRVCFLAALIMAFVFTLPNSVYAQKP | 2.33

Row | Sequence | AmyQ secretion efficiency
53 | MFNRLFRVCFLAALIMAFVLTFFVYAQKP | 5.95
54 | MFNRLFRVCFLAALIMTLPNSVYAQKP | 2.44
55 | MFNRLFRVCKKKRKRMAFTLPNSVYAQKP | 7.15
56 | MFNRLFRVCRRAALIMAFTLPNSVYAQKP | 4.23
57 | MFNRLFRYCTLAALIMAFTLPNSVYAQKP | 1.93
58 | MFNRLRVCFLAALIMAFTLPNSVYAQKP | 2
59 | MFNTLFSVCFLAALIMAFTLPNSVYAQKP | 4.02
60 | MFQFAITLSVLCALILLVPTLLVIPFQHNKEAGASV | 6.31
61 | MFRKLLSSLAISALSLGLLVSAPTASFAAES | 5.47
62 | MFRLLVSLRVWMVFLMNWVTPDRKTAAAAVY | 7.07
63 | MFRMIVRMTLPLLIVCLAFSSFSASARAASE | 1.61
64 | MFSIFSLIMMTGLLFGLTSPAFAAEK | 4.78
65 | MFSIGSIMACLILFSFTITTFINTETISAFSN | 5.65
66 | MFSKWMSGLLLVAVGFSFTQVMVHAGET | 6.12
67 | MFSRKILLSSALSFGMLISAVPALAAGT | 3.61
68 | MFTFSGSMFLVGLSAALMSISLFSATASAAST | 1.64
69 | MFTNHTISLLIIFLLASAVLAKPIEAHTV | 2.28
70 | MFTWIYVVLVLSIAGIGGFSVHAASS | 5.5
71 | MGCGTQGKGSGIASFPVSAQAKDQ | 6.09
72 | MGCTMMLLFSAIASFPVSAQAKDQ | 6.4
73 | MGFGSTLVVSALSISALALSVSGVASAHEI | 3.47
74 | MGFVSSSIIALVTILMLSVTSLFALQPSAKAAEH | 2.48
75 | MGGGFSILIMMTGLLFGLTSPAFAAEK | 3.63
76 | MGGGSFSIVFLILLLMLTLVVAPKEKAEAASS | 1.53
77 | MGGLGTLVLLLLVTGLFMSLFAVTATASAQTG | 3.36
78 | MGGMSCSILVVSVTLFFSFLTIGPLAHAQNS | 2.24

Row | Sequence | AmyQ secretion efficiency
79 | MGGSIILLLAVIIAAAAAGVAFYV | 7.67
80 | MGGSILIQVMIMFTLLLTMAFSADAADS | 5.96
81 | MGGVFPLILSAVLFLSCFFGARQTEASASKR | 4.03
82 | MGKRGGSGSSLFISSAVLLSILLPSGQAHAQSA | 1.07
83 | MGKWIYVVLVLSIAGIGGFSVHAASS | 6.5
84 | MGKWYYVVLVLSIAGIGGFSVHAASS | 7.3
85 | MGLGGKLSVAVAASFMSLSISLPGVQAAEG | 1.01
86 | MGLGKKGTYRVAASFMSLSISLPGVQAAEG | 4.07
87 | MGLGKKLKKKKAASFMSLSISLPGVQAAEG | 7.92
88 | MGLGKKLKKRKRRSFMSLSISLPGVQAAEG | 7.65
89 | MGLGKKLMVAVAAIFMMLMIFLPGVQAAEG | 1.54
90 | MGLGKKLSVAVAASFMSLSISLDDEVQAAEG | 1.35
91 | MGLGKKLSVAVAASFMSLSISLDEEDDEVQAAEG | 1.62
92 | MGLGKKLSVAVAASFMSLSISLFVVQAAEG | 3.73
93 | MGLGKKLSVAVAASFMSLSISLKRRRKRVQAAEG | 7.64
94 | MGLGKKLSVAVAASFMSLSISLPGAVGPGFPTFPSVQAAEG | 1.21
95 | MGLGKKLSVAVAASFMSLSISLPGCQAAEG | 1.48
96 | MGLGKKLSVAVAASFMSLSISLPGEQAAEG | 3.68
97 | MGLGKKLSVAVAASFMSLSISLPGGPAVQAAEG | 1.61
98 | MGLGKKLSVAVAASFMSLSISLPGGQAAEG | 1.55
99 | MGLGKKLSVAVAASFMSLSISLPGIQAAEG | 1.56
100 | MGLGKKLSVAVAASFMSLSISLPGKQAAEG | 4.55
101 | MGLGKKLSVAVAASFMSLSISLPGLQAAEG | 1.65
102 | MGLGKKLSVAVAASFMSLSISLPGQQAAEG | 3.99
103 | MGLGKKLSVAVAASFMSLSISLPGRQAAEG | 3.87
104 | MGLGKKLSVAVAASFMSLSISLPGSQAAEG | 2.3

Row | Sequence | AmyQ secretion efficiency
105 | MGLGKKLSVAVAASFMSLSISLPGTQAAEG | 1.77
106 | MGLGKKLSVAVAASFMSLSISLPGVAAGFVFVQAAEG | 4.93
107 | MGLGKKLSVAVAASFMSLSISLPGVQAAED | 2.84
108 | MGLGKKLSVAVAASFMSLSISLPGVQAAPG | 2.04
109 | MGLGKKLSVAVAASFMSLSISLPGVQAAPR | 2.88
110 | MGLGKKLSVAVAASFMSLSISLPGVQAEDD | 4.28
111 | MGLGKKLSVAVAASFMSLSISLPGVQARKR | 6.96
112 | MGLGKKLSVAVAASFMSLSISLPGVQCAEG | 2.75
113 | MGLGKKLSVAVAASFMSLSISLPGVQDAEG | 3.93
114 | MGLGKKLSVAVAASFMSLSISLPGVQEAEG | 6.02
115 | MGLGKKLSVAVAASFMSLSISLPGVQFAEG | 4.64
116 | MGLGKKLSVAVAASFMSLSISLPGVQGAEG | 1.9
117 | MGLGKKLSVAVAASFMSLSISLPGVQHAEG | 3.41
118 | MGLGKKLSVAVAASFMSLSISLPGVQKAEG | 3.62
119 | MGLGKKLSVAVAASFMSLSISLPGVQLAEG | 4.12
120 | MGLGKKLSVAVAASFMSLSISLPGVQMAEG | 3.92
121 | MGLGKKLSVAVAASFMSLSISLPGVQNAEG | 2.95
122 | MGLGKKLSVAVAASFMSLSISLPGVQPAEG | 4.8
123 | MGLGKKLSVAVAASFMSLSISLPGVQQAEG | 3.24
124 | MGLGKKLSVAVAASFMSLSISLPGVQRAEG | 2.64
125 | MGLGKKLSVAVAASFMSLSISLPGVQSAEG | 3.87
126 | MGLGKKLSVAVAASFMSLSISLPGVQTAEG | 3.78
127 | MGLGKKLSVAVAASFMSLSISLPGVQVAEG | 3.6

From the supplement of paper PMC9942255
